Measurements: patent US20240124606A1

T1: human CD73 (human) (UniProt P21589)
T1 sequence: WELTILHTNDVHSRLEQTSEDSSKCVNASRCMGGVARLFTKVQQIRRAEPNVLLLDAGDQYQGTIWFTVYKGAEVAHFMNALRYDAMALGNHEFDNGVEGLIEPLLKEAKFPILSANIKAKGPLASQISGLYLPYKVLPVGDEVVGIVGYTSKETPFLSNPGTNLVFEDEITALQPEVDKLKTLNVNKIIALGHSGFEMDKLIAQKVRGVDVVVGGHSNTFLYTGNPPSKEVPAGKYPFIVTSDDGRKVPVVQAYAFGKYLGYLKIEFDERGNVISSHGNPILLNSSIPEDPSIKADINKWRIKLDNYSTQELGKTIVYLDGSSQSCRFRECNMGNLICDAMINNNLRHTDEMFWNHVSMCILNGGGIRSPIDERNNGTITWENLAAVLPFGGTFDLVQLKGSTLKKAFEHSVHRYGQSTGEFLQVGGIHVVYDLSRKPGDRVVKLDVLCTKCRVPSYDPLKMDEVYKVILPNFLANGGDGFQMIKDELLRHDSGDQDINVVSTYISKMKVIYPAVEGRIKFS


Experiments:
mouse CD73 (mouse) = mouse CD73 (mouse) (UniProt Q61503); assay: flow cytometry, murine E0771 breast cancer cells, isotype control; PE against SSC-A
human CD73 (human) [1] = biological target: T1, human CD73 (human); assay: flow cytometry, human PC3 prostate cancer cells, isotype control plot above the E7 plot; CD73-PE against SSC-A
human CD73 (human) [2] = biological target: T1, human CD73 (human); assay: flow cytometry, human PC3 prostate cancer cells, isotype control plot above the 2C5 plot (its gate is drawn larger than in the other plots); CD73-PE against SSC-A
human CD73 (human) [3] = biological target: T1, human CD73 (human); assay: flow cytometry, human PC3 prostate cancer cells, 10 ug/ml antibody, PE anti-mIgG secondary antibody; CD73-PE against SSC-A

Chain of UniProt Q61503 (Q61503 29-551 limits assumed): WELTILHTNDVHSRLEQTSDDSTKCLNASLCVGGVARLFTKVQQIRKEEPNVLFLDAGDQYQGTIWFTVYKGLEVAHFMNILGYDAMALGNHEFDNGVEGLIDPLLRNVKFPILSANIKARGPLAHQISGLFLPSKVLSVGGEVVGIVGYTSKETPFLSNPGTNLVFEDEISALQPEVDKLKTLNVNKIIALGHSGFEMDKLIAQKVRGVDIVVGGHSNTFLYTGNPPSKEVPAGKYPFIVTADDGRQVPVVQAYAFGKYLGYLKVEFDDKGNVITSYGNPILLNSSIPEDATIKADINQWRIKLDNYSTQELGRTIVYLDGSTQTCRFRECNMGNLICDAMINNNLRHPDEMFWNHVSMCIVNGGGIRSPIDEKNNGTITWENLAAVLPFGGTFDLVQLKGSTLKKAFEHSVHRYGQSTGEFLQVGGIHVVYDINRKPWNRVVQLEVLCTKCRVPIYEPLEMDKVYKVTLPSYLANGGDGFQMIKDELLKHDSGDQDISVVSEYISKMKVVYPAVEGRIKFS

Molecule | percent of cells in the CD73 gate (mouse CD73 (mouse)) | percent of cells in the CD73-PE gate (human CD73 (human) [1]) | percent of cells in the CD73-PE gate (human CD73 (human) [2]) | percent of cells in the CD73-PE gate (human CD73 (human) [3])
Isotype (antibody) | 0.8 | 1.02 | 2.84 | –
2C5 (a commercially-available anti-CD73 mAb, Astrazeneca) (antibody, from another filing, V domains shown) VH: EVQLLESGGGLVQPGGSLRLSCAASGFTFSSYAMSWVRQAPGKGLEWVSAISGSGGSTYYADSVKRRFTISRDNSKNTLYLQMNSLRAEDTAVYYCARDKGYYWYMDVWGQGTMVTVSS VL: QSVLTQPPSVSVSPGQTASITCSGDKVGDKYASWYQQKPGQSPVLVIYEDTKRLSGIPERFSGSNSGNTATLTISGTQAMDEADYYCQAWDTSFWVFGGGTKLTVL | – | – | – | 99.7
